Results as given in US20210122823A1 (EXCELMAB, published 2021).
Positions count from the first letter of the chain named. Blank lines part the entries; values can stand above or below the binder they belong to.

Assays:
[1] = biological target: HER2 on tumor cell lines (SKBR-3, NCI-N87, MCF-7; 293F as HER2-negative control) (human, UniProt P04626 23-1255); test: cell-based or functional assay
human CD3 antigen = biological target: T1, human CD3 antigen (human, UniProt P07766 23-126); test: ELISA, CD3 antigen coated on plate, anti-human IgG-peroxidase detection
T1 construct: also called antigen CD3
T1 sequence (P07766 23-126): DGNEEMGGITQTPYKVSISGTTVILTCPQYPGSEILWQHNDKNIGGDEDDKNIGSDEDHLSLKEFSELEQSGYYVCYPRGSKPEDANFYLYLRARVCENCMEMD

EC50 (human CD3 antigen): 1.4 µg/mL
B1: HER2-OB1×GXP2 bispecific antibody (bispecific antibody, human IgG1, kappa, L234A L235A)
heavy 1: not shown
heavy 2: EVQLVESGGGLVQPGGSLKLSCAASGFTFNTYAMNWVRQAPGKGLEWVARIRSKYNNYATYYADSVKDRFTISRDDSKNTAYLQMNNLKTEDTAMYYCVRHGNFGNSYVSWFAYWGQGTLVTVSSASTKGPSVFPLAPSSKSTSGGTAALGCLVKDYFPEPVTVSWNSGALTSGVHTFPAVLQSSGLYSLSSVVTVPSSSLGTQTYICNVNHKPSNTKVDKKVEPKSCDKTHTCPPCPAPEAAGGPSVFLFPPKPKDTLMISRTPEVTCVVVDVSHEDPEVKFNWYVDGVEVHNAKTKPREEQYNSTYRVVSVLTVLHQDWLNGKEYKCKVSNKALPAPIEKTISKAKGQPREPQVYTLPPSRDELTKNQVSLTCLVKGFYPSDIAVEWESNGQPENNYKTTKKKLDSDGSFFLYSKLTVDKSRWQQGNVFSCSVMHEALHNHYTQKSLSLSPGK
light: DIQMTQEPSLTTSPGGTVTLTCRSSTGAVTTSNYANWVQEKPGQAPRGLIGGTNKRAPGTPARFSGSLIGGKAALTITGVQPEDEAIYFCALWYSNLWVFGGGTKLEIKRTVAAPSVFIFPPSDEQLKSGTASVVCLLNNFYPREAKVQWKVDNALQSGNSQESVTEQDSKDSTYSLSSTLTLSKADYEKHKVYACEVTHQGLSSPVTKSFNRGEC
notes: also called HER2×GXP2; Her2×GXP2
EC50 of PBMC-mediated killing of NCI-N87 cells (LDH release) [1]: 0.000395 µg/mL | EC50 of PBMC-mediated killing of SKBR-3 cells (LDH release), fold lower than Herceptin [1]: > 100 times lower than Herceptin

EC50 (human CD3 antigen): 3.15 µg/mL
B2: HER2-OB1×GXP bispecific antibody (bispecific antibody)
chain 1: not shown
chain 2: B1 heavy 2 with Q3K, V5L, G15K, K78Q, N79S, T80I, A81L
chain 3: QAVVTQESALTTSPGETVTLTCRSSTGAVTTSNYANWVQEKPDHLFTGLIGGTNKRAPGVPARFSGSLIGDKAALTITGAQTEDEAIYFCALWYSNLWVFGGGTKLVTMEIKRTVAAPSVFIFPPSDEQLKSGTASVVCLLNNFYPREAKVQWKVDNALQSGNSQESVTEQDSKDSTYSLSSTLTLSKADYEKHKVYTCEVTHQGLSSPVTKSFNRGEC
